Assay [1] addresses T1, peptide-6 (HSP65-derived peptide, GPKGRNVVLEKKWGAP) (Mycobacterium tuberculosis).
T1 construct: also called peptide-6 antigen; 15
T1 peptide: GPKGRNVVLEKKWGAP
Kind of assay: ELISA, peptide-6 coated at 10 µg/ml. On the technique in general: In an ELISA, binding on a coated surface is turned into a signal by an enzyme label.

In assay [2] the target is T1, peptide-6 (HSP65-derived peptide, …). Kind of assay: ELISA, peptide-6 coated at 10 µg/ml, anti-human IgG kappa peroxidase.
Assay [3] concerns the target T2, human adenylyl cyclase-associated protein 1 (CAP1) fused to His tag at the N-terminus (human, UniProt Q01518 1-475).
T2 construct: also called His-CAP1; His-tagged CAP1; not shown: 6xHIS tag at the N terminus from a modified Pet22b vector
Kind of assay: Western blot of over-expressed and purified His-CAP1.

Assay [4] concerns the target T1, peptide-6 (HSP65-derived peptide, …). Kind of assay: ELISA, peptide-6 coated plate.
Assay [5] has the same target. Kind of assay: ELISA, plates precoated with 10 µg/ml peptide-6, goat anti-human IgG peroxidase.
The target is the same in assay [6]. Kind of assay: ELISA, plates precoated with 10 µg/ml peptide-6, goat anti-mouse IgM peroxidase.

The values below come from patent publication US20120156201A1 (PROTAB, published 2012).

T2 sequence (Q01518 whole entry, the tested form may be a part): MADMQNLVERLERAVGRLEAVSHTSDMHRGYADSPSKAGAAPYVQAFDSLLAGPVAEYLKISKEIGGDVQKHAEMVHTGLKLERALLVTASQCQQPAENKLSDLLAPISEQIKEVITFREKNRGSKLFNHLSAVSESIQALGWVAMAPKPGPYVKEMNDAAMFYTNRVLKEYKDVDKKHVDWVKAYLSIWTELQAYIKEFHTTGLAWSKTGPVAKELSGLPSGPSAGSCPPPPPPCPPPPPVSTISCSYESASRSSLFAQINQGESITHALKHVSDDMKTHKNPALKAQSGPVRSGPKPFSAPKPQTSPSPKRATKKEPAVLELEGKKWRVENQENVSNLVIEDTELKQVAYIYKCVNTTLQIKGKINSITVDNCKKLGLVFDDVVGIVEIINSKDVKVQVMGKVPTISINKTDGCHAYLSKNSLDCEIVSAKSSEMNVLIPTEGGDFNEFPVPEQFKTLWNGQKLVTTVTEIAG

B1: humanized anti-peptide-6 antibody variant VH2/VK2 (antibody, V domains shown)
VH: QVTLKESGPALVKPTQTLTLTCSFSGFSLSTSNMGVGWIRQPAGKGLEWLLHILWNDSKYYNPALKSRLTISKDTYKNQVVLTMTNMDPVDTATYYCARMGGYYGNYGYYAMDYWGQGTLVTVSS
VL: QIVLTQSPATLSLSPGERATMSCTASSSVSSSYLHWYQQKPGKAPKLWIYSTSNLASGVPSRFSGSGSGTDYTLTISSLQPEDFATYYCHQYHRSPPTFGQGTKLEIK
For the molecule B1, the binding result in assay [1] is on record as “binds”.

B2: humanized anti-peptide-6 antibody variant VH3/VK2 (antibody, V domains shown)
VH: QVTLKESGPALVKPTQTLTLTCSFSGFSLSTSNMGVGWIRQPAGKGLEWLLHILWNDSKYYNPALKSRLTISKDTSKNQVVLTMTNMDPVDTATYYCARMGGYYGNYGYYAMDYWGQGTLVTVSS
VL: QIVLTQSPATLSLSPGERATMSCTASSSVSSSYLHWYQQKPGKAPKLWIYSTSNLASGVPSRFSGSGSGTDYTLTISSLQPEDFATYYCHQYHRSPPTFGQGTKLEIK
With B2, the binding result in assay [2] is recorded as “binds”.

B3: humanized anti-peptide-6 antibody variant VH4/VK1 (antibody, V domains shown)
VH: QVTLKESGPALVKPTQTLTLTCSFSGFSLSTSNMGVGWIRQPAGKGLEWLAHILWNDSKYYNPALKSRLTISKDTSKNQVVLTMTNMDPVDTATYYCARMGGYYGNYGYYAMDYWGQGTLVTVSS
VL: QIVLTQSPAILSLSPGERATMSCTASSSVSSSYLHWYQQKPGKAPKLWIYSTSNLASGVPSRFSGSGSGTDYTLTISSLQAEDFATYYCHQYHRSPPTFGQGTKLEIK
Regarding B3, in assay [2], the binding result is listed as “binds”.

B4: humanized anti-peptide-6 antibody variant VH2/VK3 (antibody, V domains shown)
VH: QVTLKESGPALVKPTQTLTLTCSFSGFSLSTSNMGVGWIRQPAGKGLEWLLHILWNDSKYYNPALKSRLTISKDTYKNQVVLTMTNMDPVDTATYYCARMGGYYGNYGYYAMDYWGQGTLVTVSS
VL: QIVLTQSPATLSLSPGERATLSCTASSSVSSSYLHWYQQKPGKAPKLWIYSTSNLASGVPSRFSGSGSGTDYTLTISSLQPEDFATYYCHQYHRSPPTFGQGTKLEIK
notes: also called humanized VH2/VK3; PRO01 VH2/VK3
Regarding B4, the binding result in assay [1] and in assay [3] was “binds” each time.

B5: humanized anti-peptide-6 antibody variant VH2/VK1 (antibody, V domains shown)
VH: QVTLKESGPALVKPTQTLTLTCSFSGFSLSTSNMGVGWIRQPAGKGLEWLLHILWNDSKYYNPALKSRLTISKDTYKNQVVLTMTNMDPVDTATYYCARMGGYYGNYGYYAMDYWGQGTLVTVSS
VL: QIVLTQSPAILSLSPGERATMSCTASSSVSSSYLHWYQQKPGKAPKLWIYSTSNLASGVPSRFSGSGSGTDYTLTISSLQAEDFATYYCHQYHRSPPTFGQGTKLEIK
Regarding B5, the binding result in assay [4] is recorded as “binds”.

B6: humanized anti-peptide-6 antibody variant VH4/VK2 (antibody, V domains shown)
VH: QVTLKESGPALVKPTQTLTLTCSFSGFSLSTSNMGVGWIRQPAGKGLEWLAHILWNDSKYYNPALKSRLTISKDTSKNQVVLTMTNMDPVDTATYYCARMGGYYGNYGYYAMDYWGQGTLVTVSS
VL: QIVLTQSPATLSLSPGERATMSCTASSSVSSSYLHWYQQKPGKAPKLWIYSTSNLASGVPSRFSGSGSGTDYTLTISSLQPEDFATYYCHQYHRSPPTFGQGTKLEIK
Regarding B6, the binding result in assay [2] is “binds”.

B7: humanized anti-peptide-6 antibody variant VH1/VK2 (antibody, V domains shown)
VH: QVTLKESGPAIVKPTQTLTLTCSFSGFSLSTSNMGVGWIRQPSGKGLEWLLHILWNDSKYYNPALKSRLTISKDTYKNQVVLTMTNMDPVDTATYYCARMGGYYGNYGYYAMDYWGQGTSVTVSS
VL: QIVLTQSPATLSLSPGERATMSCTASSSVSSSYLHWYQQKPGKAPKLWIYSTSNLASGVPSRFSGSGSGTDYTLTISSLQPEDFATYYCHQYHRSPPTFGQGTKLEIK
Regarding B7, the binding result in assay [4] is listed as “binds”.

B8: humanized anti-peptide-6 antibody variant VH1/VK1 (antibody, V domains shown)
VH: QVTLKESGPAIVKPTQTLTLTCSFSGFSLSTSNMGVGWIRQPSGKGLEWLLHILWNDSKYYNPALKSRLTISKDTYKNQVVLTMTNMDPVDTATYYCARMGGYYGNYGYYAMDYWGQGTSVTVSS
VL: QIVLTQSPAILSLSPGERATMSCTASSSVSSSYLHWYQQKPGKAPKLWIYSTSNLASGVPSRFSGSGSGTDYTLTISSLQAEDFATYYCHQYHRSPPTFGQGTKLEIK
Regarding B8, in assay [4], the binding result is “binds”.

B9: humanized anti-peptide-6 antibody variant VH3/VK1 (antibody, V domains shown)
VH: QVTLKESGPALVKPTQTLTLTCSFSGFSLSTSNMGVGWIRQPAGKGLEWLLHILWNDSKYYNPALKSRLTISKDTSKNQVVLTMTNMDPVDTATYYCARMGGYYGNYGYYAMDYWGQGTLVTVSS
VL: QIVLTQSPAILSLSPGERATMSCTASSSVSSSYLHWYQQKPGKAPKLWIYSTSNLASGVPSRFSGSGSGTDYTLTISSLQAEDFATYYCHQYHRSPPTFGQGTKLEIK
For the molecule B9, the binding result in assay [4] is recorded as “binds”.

B10: humanized anti-peptide-6 antibody variant VH4/VK3 (antibody, V domains shown)
VH: QVTLKESGPALVKPTQTLTLTCSFSGFSLSTSNMGVGWIRQPAGKGLEWLAHILWNDSKYYNPALKSRLTISKDTSKNQVVLTMTNMDPVDTATYYCARMGGYYGNYGYYAMDYWGQGTLVTVSS
VL: QIVLTQSPATLSLSPGERATLSCTASSSVSSSYLHWYQQKPGKAPKLWIYSTSNLASGVPSRFSGSGSGTDYTLTISSLQPEDFATYYCHQYHRSPPTFGQGTKLEIK
On to B10, for which the binding result in assay [2] is reported as “binds”.

B11: humanized anti-peptide-6 antibody variant VH1/VK3 (antibody, V domains shown)
VH: QVTLKESGPAIVKPTQTLTLTCSFSGFSLSTSNMGVGWIRQPSGKGLEWLLHILWNDSKYYNPALKSRLTISKDTYKNQVVLTMTNMDPVDTATYYCARMGGYYGNYGYYAMDYWGQGTSVTVSS
VL: QIVLTQSPATLSLSPGERATLSCTASSSVSSSYLHWYQQKPGKAPKLWIYSTSNLASGVPSRFSGSGSGTDYTLTISSLQPEDFATYYCHQYHRSPPTFGQGTKLEIK
As to B11, the binding result in assay [4] was “binds”.

B12: humanized anti-peptide-6 antibody variant VH3/VK3 (antibody, V domains shown)
VH: QVTLKESGPALVKPTQTLTLTCSFSGFSLSTSNMGVGWIRQPAGKGLEWLLHILWNDSKYYNPALKSRLTISKDTSKNQVVLTMTNMDPVDTATYYCARMGGYYGNYGYYAMDYWGQGTLVTVSS
VL: QIVLTQSPATLSLSPGERATLSCTASSSVSSSYLHWYQQKPGKAPKLWIYSTSNLASGVPSRFSGSGSGTDYTLTISSLQPEDFATYYCHQYHRSPPTFGQGTKLEIK
Consider B12, for which the binding result in assay [2] is listed as “binds”.

B13: chimeric mouse-human anti-peptide-6 IgG1 antibody (antibody, V domains shown)
VH: QVTLKESGPGILQPSQTLSLTCSFSGFSLSTSNMGVGWIRQPSGKGLEWLLHILWNDSKYYNPALKSRLTISKDTYNNQVFLKIANVDTADTATYYCARMGGYYGNYGYYAMDYWGQGTSVTVSS
VL: QIVLTQSPAIMSASLGERVTMTCTASSSVSSSYLHWYQQKPGSSPKLWIYSTSNLASGVPARFSGSGSGTSYSLTISSMEAEDAATYYCHQYHRSPPTFGSGTKLEIK
notes: also called chimeric mouse IgG1; chimeric mouse antibody
As to B13, the binding result in assay [5] was “binds”.

B14: mouse anti-peptide-6 monoclonal antibody (IgM) (antibody, V domains shown)
VH: QVTLKESGPGILQPSQTLSLTCSFSGFSLSTSNMGVGWIRQPSGKGLEWLLHILWNDSKYYNPALKSRLTISKDTYNNQVFLKIANVDTADTATYYCARMGGYYGNYGYYAMDYWGQGTSVTVSS
VL: QIVLTQSPAIMSASLGERVTMTCTASSSVSSSYLHWYQQKPGSSPKLWIYSTSNLASGVPARFSGSGSGTSYSLTISSMEAEDAATYYCHQYHRSPPTFGSGTKLEIK
notes: also called mouse-IgM
For B14, the binding result in assay [6] was “binds”.
